# Key:
# [1] = molecular target: VEGF-B(10–108), minimal receptor-binding domain of vascular endothelial growth factor-B (untagged dimer) (human); assay: crystal structure
# [2] = molecular target: VEGF-B(10–108) (fusion protein) with thioredoxin, His tag and S tag (human); assay: SDS-PAGE and Western blot
Substance,stoichiometry N [1],stoichiometry N [2]
"VEGF-B(10–108), minimal receptor-binding domain of vascular endothelial growth factor-B (untagged dimer) (domain or fragment)",2,–
"VEGF-B(10–108) (fusion protein) with thioredoxin, His tag and S tag (domain or fragment)",–,2

# Reference: publication PMC2911289
